The values below come from PMC7647061, “Expression, purification and characterization of α-synuclein fibrillar specific scFv from inclusion bodies” (PLoS ONE, 2020).

This assay has as its target full-length α-syn140 fibrils (Homo sapiens (assumed), UniProt P37840). In words: far-Western, overlay or dot blot; dot blot: antigen (monomeric or fibrillar) spotted on nitrocellulose in 5 μl, air-dried, blocked in 5% skimmed milk in PBST; scFv-F 5 μg/mL overnight at 4°C; detected by anti-His and HRP secondary antibody. The note with it: both partners purified.

B1: single-chain variable fragment (scFv-F) antibody (scFv, V domains shown)
VH: DVQLVESGGGLVQPGGSRKLSCAASGFTFSSFGMHWVRQAPEKGLEWVAYISSGSSTIYYADTVKGRFTISRDNPKNTLFLQMTSLRSEDTAMYYCARGNNPGTGYYYAMDYWGQGTSVTVSS
VL: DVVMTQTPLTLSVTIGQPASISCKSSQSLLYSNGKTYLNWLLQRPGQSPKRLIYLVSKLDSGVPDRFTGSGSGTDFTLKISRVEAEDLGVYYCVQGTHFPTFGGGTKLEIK
notes: VL of mouse monoclonal antibody Syn-F2; (Gly4Ser)3 linker, written out from the printed formula; VH of mouse monoclonal antibody Syn-F2; Order VL-(Gly4Ser)3-VH-6xHis; Final construct is in pET28a; the vector may add residues at the N-terminus (the model's residue numbers Tyr215 and Thr269 hint at a chain longer than VL-linker-VH alone); not shown: His6, C-terminal, kept
Take B1: the binding result is recorded as “binds”.
